Paper PMC10783015

What was measured:
[1] = target: T1, CRP (Salmonella enterica serovar Typhimurium ATCC 14028) (UniProt P0A2T6); test: SPR; conditions: EMSA: 100 ng DNA in 1x TBE, 20 uL, 45 min at room temperature, 12% native PAGE, PargS competitor, 20 uM cAMP for CRP; SPR: streptavidin chip with biotinylated …
T1 sequence: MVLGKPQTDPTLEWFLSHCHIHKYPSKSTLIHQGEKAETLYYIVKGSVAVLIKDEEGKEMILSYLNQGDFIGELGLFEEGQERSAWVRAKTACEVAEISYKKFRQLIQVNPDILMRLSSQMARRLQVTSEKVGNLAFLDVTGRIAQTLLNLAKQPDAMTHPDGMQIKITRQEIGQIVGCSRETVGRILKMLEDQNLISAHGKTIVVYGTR

[2] = target: T2, H-NS (Salmonella enterica serovar Typhimurium ATCC 14028) (UniProt P0A1S2); test: SPR; conditions: EMSA: 100 ng DNA in 1x TBE, 20 uL, 45 min at room temperature, 12% native PAGE, PargS competitor, 20 uM cAMP for CRP; SPR: streptavidin chip with biotinylated …
T2 sequence: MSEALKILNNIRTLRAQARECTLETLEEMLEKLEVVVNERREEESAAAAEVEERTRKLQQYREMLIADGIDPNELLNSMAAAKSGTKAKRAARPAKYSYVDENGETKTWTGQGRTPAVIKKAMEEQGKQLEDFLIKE

Row | Sequence | Kd [1] [nM] | binding [2] | binding [1]
1 | AAGAGCCTGAATATTCACCGGAATACCTTACGTTTATGAAGCGGGCTGTATTGCCCGCGCCAGTTTAAGAATTAGGGCGGGAGTATACTGCAAATGCCCGTTGGCGTCAGCATTGCGCGCGCGGCGCGTCGCCTGAAATATACGCAACAATAATCTGCATAAGCATTCAATAAACGCCCAATCAAATCAAAGGTTG (double strand) [PargS SPR] | 1 | no binding | –
2 | CTTATGTCGGTCATTGCCGTAGCGCTGCCGACGATCTTATAGCTATTGAGAACTCTCGTTTCACAACCTATGTTTTAATTTCAAAACGATCAATAATGAAACTTATGTTTTGTTATGGGTATCACATTTCGAATTTCATAATCCTGGCGTTTTTTATCGTT (double strand) [PiolT1 SPR] | – | – | no binding
